This experiment concerns the target cyclin-dependent kinase 1 (CDK1) (Xenopus laevis (endogenous in oocyte CSF extract)).

The substance “glutathione S-transferase-tagged cell division cycle 6 (GST-CDC6) (natural protein)” displayed a histone H1 kinase activity of CDC6-depleted CSF extract with 10 to 20 nM GST-CDC6 added (about 40% less with 10 nM, 45% less with 20 nM) of 45 % less.
